Measurements published in patent US20230095167A1 (UNIVERSITEIT MAASTRICHT, published 2023).
Numbering of substitutions follows the chain as printed.

T1: recombinant NT-proBMP10 (22-312) (human, UniProt O95393 22-312)
T1 construct: In-house construct; also called pro-peptide BMP10; BMP10(312)
T1 sequence: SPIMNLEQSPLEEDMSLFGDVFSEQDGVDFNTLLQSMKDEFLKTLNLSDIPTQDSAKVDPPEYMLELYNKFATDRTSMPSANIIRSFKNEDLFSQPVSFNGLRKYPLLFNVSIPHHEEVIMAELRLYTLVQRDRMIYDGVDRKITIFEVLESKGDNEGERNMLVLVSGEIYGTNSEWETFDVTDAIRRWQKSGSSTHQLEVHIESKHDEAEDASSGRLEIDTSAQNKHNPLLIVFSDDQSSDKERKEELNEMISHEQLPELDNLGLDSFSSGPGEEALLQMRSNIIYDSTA

B1: MAB<BMP10>rRb-9E7 HC12/LC7 (p10rw/p10rx)-IgG(SPA) (antibody, V domains shown)
VH: QSLEESGGGLVQPEGSLTLTCIASAFSFSSGYYMCWVRQAPGKGLEWIACIYAGSSGTTYYASWAKGRFTISKASSTTVTLLMTSLTAADTATYFCARGPGASGYRLGLWGPGTLVTVSS
VL: DVVMTQTPASVSEPVGGTVTIKCQASEDIYRLLAWYQQKPGQPPKLLIYDASDLASGVPSRLSGSGSGTEYTLSISDLECADAATYYCQQGYYISGGDSFGGGTEVVVK
notes: Recombinant rabbit monoclonal IgG; also called clone 9E7
B2: MAB<BMP10>rRb-8G5 HC3/LC5 (p10qz/p10ra)-IgG(SPA) (antibody, V domains shown)
VH: QSLEESGGDLVKPGASLTLTCTASGFSFSSSYWICWVRQAPGKGLEWIACIYAGSSDITYYASWAKGRFTVSKTSSPTVTLQMTSLTAADTATYFCARGRYYVDGYADYYPGDFNLWGPGTLVTVSS
VL: DIVMTQTPASVEAAVGGTVTIKCQASQSISSYLAWYQQKSGQPPKLLIYLASTLESGVPSRFKGSGSGTEFTLTISDLECADAATYYCQSYYYSSSSSYGSAFGGGTEVVVK
notes: Recombinant rabbit monoclonal IgG; also called clone 8G5; VH-8/VL-8
B3: MAB<BMP10>rRb-11A5 HC6/LC3.2 (p10se/p10sf)-IgG(SPA) (antibody, V domains shown)
VH: QSVEESGGRLVTPGTPLTLTCTASGFSLSSYAMSWVRQAPGKGLQFIGYISGGGSTYYASWVKGRFTISKTSTTVDLKLTSPTTEDTATYFCARGYPGYISGTWAVGQGTLVTVSS
VL: AVLTQTPSPVSAAVGGTVSISCQSSQSVVNNNRCSWFQQKPGQPPKQLIYSASTLASGVPSRFKGSGSGTQFTLTISDVQCDDAATYYCLGDYVSYGDSAFGGGTEVVVK
notes: Recombinant rabbit monoclonal IgG; also called clone 11A5; VH-2/VL-2
B4: MAB<BMP10>rRb-13G6 (p10tf/p10tg)-IgG(SPA) (antibody, V domains shown)
VH: QSLEESGGRLVTPGTPLTLTCTVSGFSLSNYAMSWVRQAPGMGLEYIGYISASGNTYYASWVKGRFTISKTSTTVDLKMTSPTTEDTATYFCARGYSGWISGTWAVGQGTLVTVSS
VL: B3 VL with S19N, S21G, C34L, K40R, S51R, G97S, D98E, S99A
notes: Recombinant rabbit monoclonal IgG; also called clone 13G6; VH-4/VL-4
B5: 11C10 (antibody, V domains shown)
VH: QSLEESGGRLVTPGTALTVTCTVSGIDLSRNLMSWVRQAPGEGLEWIGSINFRNITWYASWAKGRFTISKTSTTVDLRISSPTTEDTATYFCARGVYVNSNGYYSLWGQGTPVTVSS
VL: DIVMTQTPASVEAAVGGTVTINCQASQSVSNLLAWYQQKPGQPPKLLIYGASKLESGVPSRFKGSGSGTQFTLTINDLECDDAATYYCQTYWGGDGTSYLNPFGGGTEVVVK
notes: Rabbit monoclonal IgG; also called clone 11C10; VH-3/VL-3
B6: MAB<BMP10>rRb-3H8 HC3/LC3 (p10qx/p10qy)-IgG(SPA) (antibody, V domains shown)
VH: QSVEESGGRLVTPGTPLTLTCTASGFSLSKYDMSWVRQAPGKGLEWIGAIGGRGVTDYTTWAKGRFTISKTATTVDLKMTSPTTEDTATYFCVRALAGDTLWGPGTLVTVSS
VL: AQVLTQTASPVSAAVGSTVTINCQASQNIYKYNNLAWYQQKPGQPPKRLIYEASKLASGVPSRFSGSGSGTQFTLTISGVQCEDAATYYCQGTFECSSADCFGFGGGTEVVVK
notes: Recombinant rabbit monoclonal IgG; also called clone 3H8; VH-7/VL-7
B7: MAB<BMP10>rRb-14C8 HC2/LC3 (p10th/p10ti)-IgG(SPA) (antibody, V domains shown)
VH: QSVEESGGRLVTPGTPLTLTCTASGIDLSRYAMTWVRQAPGKGLEWIGIIGASSGTWYASWAKGRFTIAKTSTTVDLRITSPTTEDTATYFCARDNGDSKDYAFDPWGPGTLVTVSS
VL: IDMTQTPSPVSAAVGDTVTINCQASENIYSFLAWYQQKPGHSPNLLIYFASKLVSGVPSRFKGSGSGTQFTLTISDVQCDDAATYYCQQTYTYSNGDNPFGGGTEVVVK
notes: Recombinant rabbit monoclonal IgG; also called clone 14C8; VH-5/VL-5
B8: MAB<BMP10>rRb-2H8 HC7/LC6 (p10qv/p10qw)-IgG(SPA) (antibody, V domains shown)
VH: QSVEESGGRLVTPGTPLTLTCTASAFSLSRYVMSWVRQAPGKGLEFIGFINASGSTSYASWAKGRFTISKTSTTVDLKMTSLTTEDTATYFCATGNLWGPGTLVTVSS
VL: DIVMTQTPSSVSGPVGGTVTINCQASQNIYSNLAWYQQKPGQPPKLLIYYASTLVSGVPSRFKGSGSGTQFTLTISDLECANAATYYCQSKDGPTSSTYGAFGGGTEVVVR
notes: Recombinant rabbit monoclonal IgG; also called clone 2H8; VH-6/VL-6

How the values were obtained:
[1] = molecular target: T1, recombinant NT-proBMP10 (22-312); test: SPR Biacore 8K, 37°C, mAb captured, BMP10(312) as analyte; ln(2)/60*kd
Method: (§1) The association phase was monitored for 3 minutes; dissociation phase was monitored for 10 minutes. After each cycle of kinetics determination, the rabbit clones were eluted from the capture system by an injection of 10 mM Glycine pH 2.0 for 1 minute, followed by two consecutive injections of 10 mM Glycine pH 2.25 at 20 μL/min for 1 minute.
(§2) The dissociation rate constant kd was evaluated using a Langmuir 1:1 fit model according to the BIAcore™ evaluation software Insight SW V 2.0 from GE Healthcare. The antigen/antibody complex stability half-life time (minutes) was calculated according to the formula ln(2)/60*kd.

[2] = molecular target: T1, recombinant NT-proBMP10 (22-312); test: SPR Biacore 8K, 37°C, mAb captured by goat anti-rabbit Fc, BMP10(312) 3.7-300 nM as analyte; apparent, avidity-burdened
Method: as §1, §2

[3] = molecular target: T1, recombinant NT-proBMP10 (22-312); test: SPR Biacore 8K, 37°C, bound analyte per mAb

Binder	t/2 diss (complex half-life) [1] [min]	koff [2] [s⁻¹]	MR (Molar Ratio) [3]
B1	21	0.00054	1.4
B2	6	0.0021	1.2
B3	30	0.00039	1.4
B4	> 115	< 0.0001	1.3
B5	26	0.00045	1.3
B6	15	0.00078	1.3
B7	10	0.0012	1.3
B8	38	0.0003	1.2
